Patent publication US20050118674A1, “Engineering of Controlled Deamidation Rates in Peptides, Proteins, and Similar Structures” (priority 2003, published 2005)

Assay: First-order nonenzymatic deamidation of pentapeptides in Tris buffer
Format: physicochemical
Conditions: pH 7.4, 37.0° C., 0.15 M Tris HCl; Asn pentapeptides
Method in brief: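 First-order deamidation rates determined for XxxAsnYyy and XxxGlnYyy pentapeptides in 0.15 M Tris buffer, pH 7.4, 37° C. Not all values were measured directly: several Asn rates were estimated and most Gln rates came from surface fitting.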

Row | Substance | First-Order Deamidation Halftimes of GlyXxxAsnYyyGly [days]
1 | GlyValAsnAlaGly (GVNAG; printed: GlyValAsnAlaGly) | 27.5
2 | GlyValAsnAmCysGly | 34.7
3 | GlyValAsnArgGly (GVNRG; printed: GlyValAsnArgGly) | 67.4
4 | GlyValAsnAspGly (GVNDG; printed: GlyValAsnAspGly) | 33.5
5 | GlyValAsnCysGly (GVNCG; printed: GlyValAsnCysGly) | 63.2
6 | GlyValAsnGluGly (GVNEG; printed: GlyValAsnGluGly) | 64.8
7 | GlyValAsnGlyGly (GVNGG; printed: GlyValAsnGlyGly) | 1.23
8 | GlyValAsnHisGly (GVNHG; printed: GlyValAsnHisGly) | 10.2
9 | GlyValAsnIleGly (GVNIG; printed: GlyValAsnIleGly) | 366
10 | GlyValAsnLeuGly (GVNLG; printed: GlyValAsnLeuGly) | 154
11 | GlyValAsnLysGly (GVNKG; printed: GlyValAsnLysGly) | 63.8
12 | GlyValAsnMetGly (GVNMG; printed: GlyValAsnMetGly) | 65.7
13 | GlyValAsnPheGly (GVNFG; printed: GlyValAsnPheGly) | 66.6
14 | GlyValAsnProGly (GVNPG; printed: GlyValAsnProGly) | 8030
15 | GlyValAsnSerGly (GVNSG; printed: GlyValAsnSerGly) | 18.2
16 | GlyValAsnThrGly (GVNTG; printed: GlyValAsnThrGly) | 49.9
17 | GlyValAsnTrpGly (GVNWG; printed: GlyValAsnTrpGly) | 88.9
18 | GlyValAsnTyrGly (GVNYG; printed: GlyValAsnTyrGly) | 79.2
19 | GlyValAsnValGly (GVNVG; printed: GlyValAsnValGly) | 291

Same assay, conditions: pH 7.4, 37.0 ° C., 0.15 M Tris HCl; Gln pentapeptides; 52 values measured, rest derived from surface fitting

Row | Substance | First-Order Deamidation Halftimes of GlyXxxGlnYyyGly [days]
20 | GlyTyrGlnPheGly (GYQFG; printed: GlyTyrGlnPheGly) | 8700
21 | GlyTyrGlnProGly (GYQPG; printed: GlyTyrGlnProGly) | 11000
22 | GlyTyrGlnSerGly (GYQSG; printed: GlyTyrGlnSerGly) | 6400
23 | GlyTyrGlnThrGly (GYQTG; printed: GlyTyrGlnThrGly) | 5600
24 | GlyTyrGlnTrpGly (GYQWG; printed: GlyTyrGlnTrpGly) | 18000
25 | GlyTyrGlnTyrGly (GYQYG; printed: GlyTyrGlnTyrGly) | 14000
26 | GlyTyrGlnValGly (GYQVG; printed: GlyTyrGlnValGly) | 8000
27 | GlyValGlnAlaGly (GVQAG; printed: GlyValGlnAlaGly) | 4500
28 | GlyValGlnArgGly (GVQRG; printed: GlyValGlnArgGly) | 6100
29 | GlyValGlnAspGly (GVQDG; printed: GlyValGlnAspGly) | 7000
30 | GlyValGlnCysGly (GVQCG; printed: GlyValGlnCysGly) | 1300
31 | GlyValGlnGluGly (GVQEG; printed: GlyValGlnGluGly) | 6500
32 | GlyValGlnGlyGly (GVQGG; printed: GlyValGlnGlyGly) | 640
33 | GlyValGlnHisGly (GVQHG; printed: GlyValGlnHisGly) | 5000
34 | GlyValGlnIleGly (GVQIG; printed: GlyValGlnIleGly) | 5600
35 | GlyValGlnLeuGly (GVQLG; printed: GlyValGlnLeuGly) | 5500
36 | GlyValGlnLysGly (GVQKG; printed: GlyValGlnLysGly) | 5200
37 | GlyValGlnMetGly (GVQMG; printed: GlyValGlnMetGly) | 4200
38 | GlyValGlnPheGly (GVQFG; printed: GlyValGlnPheGly) | 7200
39 | GlyValGlnProGly (GVQPG; printed: GlyValGlnProGly) | 8500
40 | GlyValGlnSerGly (GVQSG; printed: GlyValGlnSerGly) | 4400
41 | GlyValGlnThrGly (GVQTG; printed: GlyValGlnThrGly) | 4300
42 | GlyValGlnTrpGly (GVQWG; printed: GlyValGlnTrpGly) | 12000
43 | GlyValGlnTyrGly (GVQYG; printed: GlyValGlnTyrGly) | 9700
44 | GlyValGlnValGly (GVQVG; printed: GlyValGlnValGly) | 5900
